Source: patent publication US6767538B2, “Recombinant antibacterial group IIA phospholipase A2 and methods of use thereof” (New York University, priority 1999, dated 2004)
Residue numbers refer to the chain shown, from its start. Names may count otherwise.

Assays:
[1] = tested on: S. aureus RN450 and two clinical isolates, strains 5A (MRSA) and 18; experiment: Bactericidal activity toward S. aureus RN450 and clinical isolates 5A and 18 in 70% pooled human sera; format: cell-based, Staphylococcus aureus; conditions: FIGS. 4 and 5; each of several strains; laboratory medium and 70% human sera, 90 minutes
Method: S. aureus RN450 and two clinical isolates, strains 5A (MRSA) and 18 (10^7/ml were incubated with 1-500 ng/ml of each Group IIA PLA2 at 37° C. for 90 minutes in 70% (v/v) pooled human sera diluted in Hanks' balanced salts solution and buffered with 10 mM HEPES, pH7.4.

[2] = tested on: S. aureus RN450; experiment: Bactericidal activity toward S. aureus RN450 in RPMI-1640 medium; format: cell-based, Staphylococcus aureus; conditions: FIG. 4, 10^6/ml, 1-500 ng/ml, 60 minutes
Method: The bactericidal activity of wild-type human and recombinant mutant human and rabbit Group IIA PLA2s against Staphylococcus aureus 52A (10^6 per ml)was determined. S. aureus was incubated with 0.01-100 nM of each Group IIA PLA2 and incubated at 37° C. for 2 hours in RPMI-1640 medium containing 10 mM HEPES, pH 7.4 and 1% (w/v) albumin. After incubation, bacterial viability was determined by measuring the colony forming ability of the bacteria in trypticase soy agar. Bacterial colonies were enumerated after 18-24 hours at 37° C. The results are expressed as the percentage of the colony forming units (CFU) of the original bacterial inoculum (i.e. at T=0).
S. aureus RN450 (10^6/ml) was incubated with 1-500 ng/ml of each Group IIA PLA2 at 37° C. for 60 minutes in RPMI-1640 medium containing 10 mM HEPES, pH 7.4 and 1% (w/v) albumin. Bacterial viability was determined as in Example 3.

[3] = tested on: S. aureus; experiment: Antibacterial activity by colony-forming ability of susceptible bacteria; format: cell-based, Staphylococcus aureus
Method: According to the present invention, the mutant human Group IIA PLA2 of the present invention is characterized by bactericidal activity against gram positive bacteria, such as S. aureus (see Example 3). Antibacterial activity of mutant human Group IIA PLA2 may be quantified by measuring the colony-forming ability of susceptible bacteria that have been incubated with or without increasing amounts of mutant human Group IIA PLA2. Typically, a suspension of 10^6 bacteria/ml (e.g., S. aureus) is exposed to 1-500 ng/ml of mutant human Group IIA PLA2 for 60-90 minutes at 37° C., after which the cells are mixed with molten agar and plated. After overnight growth, bacterial colonies are compared between mutant Group IIA PLA2-treated and untreated cultures.

[4] = tested on: Reynolds strain of Staphylococcus aureus; experiment: Efficacy of administered mutant PLA2 against S. aureus infection in vivo (i.p. infection in mice); set-up: species or system CD/1 mice
Method: Bacteria: Reynolds strain of Staphylococcus aureus (encapsulated; grown overnight on Columbia agar to maximize encapsulation as in experiments shown in Example 6).
Administration of bacteria: 2×10^7/ml in 0.2 ml of sterile RPMI supplemented with 10 mM HEPES (pH 7.4) and 1% bovine serum albumin. Intraperitoneal (i.p.) inoculation.
Adminstration of PLA2: 15 μg/0.2 ml of above medium i.p. approx. 10-15 min after inoculation of bacteria. Control animals received medium alone. Enzyme administered was Mutant [G72K.T103K] Group IIA PLA 2.
a) @ 30, 60, 120, and 240 min after infection, blood samples taken from tail vein from each of 4 animals in control and PLA2-treated groups. There were a total of 16 animals in each group; each animal was bled only once in this time period. Levels of bacteremia were assessed by measurement of bacterial CFU in blood.
b) @ 1 day after infection, 8 animals from each group were sacrificed. Blood was collected again to measure bacteremia and the peritoneal cavity was washed and inspected to look macroscopically for abscesses (none seen) and measure intraperitoneal bacteria by assay of CFU.
c) @ 6 days after infection, the remaining 8 animals from each group were sacrificed and infection in blood and peritoneal cavity was measured as above (still no abscesses seen). This animal model produces local and disseminated infection in control animals that is eventually self-limiting. The level of metastatic infection is greatest at approx. 6 days. In addition, kidneys were excised, weighed (no significant difference between animals within and between treatment groups) and homogenized to facilitate assay of bacterial CFU within infected kidney (i.e. representing metastatic infection).

[5] = tested on: Staphylococcus aureus; conditions: 100 ng/ml in biological fluids; 10^6 S. aureus cells/ml, incl. multi-drug resistant clinical isolates; cited from earlier work

B1: mutant human Group IIA PLA2: recombinant double mutant G72K.T103K human Group IIA phospholipase A2, protein SEQ. ID. NO. 2, expressed in E. coli (protein)
chain: NLVNFHRLIKLTTGKEAALSYGFYGCHCGVGGRGSPKDATDRCCVTHDCCYKRLEKRGCGTKFLSYKFSNSKSRITCAKQDSCRSQLCECDKAAATCFARNKKTYNKKYQYYSNKHCRGSTPRC
**Q.** With B1 as the molecule, how does the “activity compared with wild-type human Group IIA PLA2” value [1] read?
**A.** Its value is “significantly more active”.

**Q.** What about the “activity compared with wild-type rabbit enzyme” value [1] of the same molecule?
**A.** The value was “essentially as active”.

**Q.** And the “antibacterial activity compared with wild-type human Group IIA PLA2” value [2]?
**A.** Its value is “increased antibacterial activity”.

**Q.** And the “bactericidal activity compared with WT rabbit Group IIA PLA2” value [2]?
**A.** Its value is “nearly equivalent”.

**Q.** And the “antibacterial activity relative to human WT homologue” value [3]?
**A.** Its value is 10 ×.

**Q.** And the abscesses seen ([4]; 6 days after infection, controls two of 16)?
**A.** Its abscesses seen is “none were seen”.

**Q.** And the “treatment of S. aureus infection in vivo” value ([4]; Example 7)?
**A.** Its value is “effective”.

**Q.** And the “S. aureus bacteremia (CFU in blood)” value ([4]; FIG. 10, 15 μg i.p., 30, 60, 120, 240 min after infection)?
**A.** Its value is “reduces”.

**Q.** What about the “metastatic kidney infection caused by S. aureus (CFU in kidney)” value ([4]; FIG. 11, 15 μg i.p., 6 days after infection) of the same molecule?
**A.** Its value is “reduces”.

B2: wild-type human Group IIA PLA2: wild-type human Group IIA 14 kDa phospholipase A2, comparator enzyme (protein, UniProt P14555 21-144, looked up)
Phospholipase A2, membrane …: B1 chain with L8M, K72G, K103T
**Q.** For B2, which “S. aureus cells killed” value [5] is on record?
**A.** Its value is “greater than 99%”.
